Numbering of substitutions follows the chain as printed. Ends that are not written are not given here.

Assay [1] deals with T1, pVHL (HA-tagged: 35S-HA-pVHL in vitro translate, or HA-pVHL produced in ts20 and WT8 cells) (UniProt P40337 1-213).
T1 construct: Also used for sentences that say only 'pVHL'; In cell lysates pVHL is in complex with elongin B, elongin C and Cul2; also called 35S-labeled pVHL; HA-VHL; not shown: HA tag
Description: biotinylated peptide, pVHL binding.

Assay [2] addresses T2, GST-VHL, elongin B, elongin C complexes (GST-VBC), immobilized on glutathione sepharose (UniProt P40337 54-213; Q15370 1-118; Q15369 17-112).
T2 construct: also called VBC-GST; GST-pVHL, elongin B, elongin C complexes
Description: capture with immobilized GST-VBC.

For assay [3], the target named is T1, pVHL (HA-tagged: 35S-HA-pVHL in vitro …). Kind of assay: biotinylated peptide on avidin Sepharose, 35S-pVHL.

T1 sequence (P40337 whole entry): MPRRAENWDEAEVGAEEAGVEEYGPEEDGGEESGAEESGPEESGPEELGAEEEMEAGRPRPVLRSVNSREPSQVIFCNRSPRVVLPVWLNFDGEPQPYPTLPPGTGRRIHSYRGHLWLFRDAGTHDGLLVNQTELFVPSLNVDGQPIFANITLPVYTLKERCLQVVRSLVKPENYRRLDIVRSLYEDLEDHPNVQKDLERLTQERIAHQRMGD

B1: biotinylated HIF (556-575) peptide with the single substitution Met561 to alanine (peptide, UniProt Q16665 556-575, looked up)
peptide: DLDLEALAPYIPMDDDFQLR
modifications: also: biotinylated (position not given here)
Consider B1, for which, in assay [1], the binding result is “binds”.

B2: Pro564Ala Gal4-HA-HIF1α (530-652) (other)
chain: EFKLELVEKLFAEDTEAKNPFSTQDTDLDLEMLAAYIPMDDDFQLRSFDQLSPLESSSASPESASPQSTVTVFQQTQIQEPTANATTTTATTDELKTVTKDRMEDIKILIASPSPTHIHKETT
notes: range 530-652; also called Gal4-ODD Pro564Ala; not shown: Gal4 moiety and HA tag
For B2, the binding result in assay [2] is “no binding”.

B3: Leu562Ala Gal4-HA-HIF1α (530-652) (other)
chain: B2 chain with L33A, A35P
notes: range 530-652; also called Gal4-ODD Leu562Ala; not shown: Gal4 moiety and HA tag
For B3, in assay [2], the binding result is on record as “no binding”.

B4: biotinylated HIF (556-575) peptide with Met561 and Met568 converted to alanine (peptide, UniProt Q16665 556-575, looked up)
peptide: DLDLEALAPYIPADDDFQLR
modifications: also: biotinylated (position not given here)
notes: also called double alanine substitution
For B4, in assay [1], the binding result was “binds”.

B5: biotinylated HIF (556-575) peptide with the single substitution Met568 to alanine (peptide, UniProt Q16665 556-575, looked up)
peptide: DLDLEMLAPYIPADDDFQLR
modifications: also: biotinylated (position not given here)
With B5, in assay [1], the binding result is “binds”.

B6: biotinylated HIF1α (556-575) peptide Pro564Ala (peptide, UniProt Q16665 556-575, looked up)
peptide: DLDLEMLAAYIPMDDDFQLR
modifications: also: biotinylated (position not given here)
As for B6, in assay [3], the binding result is given as “no binding”.

The values above are taken from patent US20040248233A1 (Dana-Farber, published 2004).
